B1: CsAGA1 (Cucumis sativus) (protein)
chain: MTVGAGITISDANLTVLGNRVLSDVHNNITLTAAPGGGVMNGAFIGVQSDQIGSRRVFPIGKLIGLRFLCAFRFKLWWMTQRMGCSGQEIPFETQFLVVETRDGSNIAGNGEEGDAVYTVFLPILEGDFRAVLQGNDNNELEICLESGDPSVDGFEGSHLVFVGAGSDPFETITYAVKSVEKHLQTFAHRERKKMPDILNWFGWCTWDAFYTDVTSDGVKKGLESFENGGIPPKFVIIDDGWQSVAKDAASTDCKADNTANFANRLTHIKENYKFQKDGKEGERIENPALGLQHIVSYMKEKHATKYVYVWHAITGYWGGVSSGVKEMEQYESKIAYPVASPGVESNEPCDALNSISKTGLGLVNPEKVFNFYNEQHSYLASAGVDGVKVDVQNILETLGAGHGGRVKLARKYHQALEASISRNFQDNGIISCMSHNTDGLYSSKRNAVIRASDDFWPRDPASHTIHIASVAYNSLFLGEFMQPDWDMFHSLHPMAEYHGAARAVGGCAIYVSDKPGQHDFNLLKKLVLHDGSILRAKLPGRPTKDCLFADPARDGKSLLKIWNMNDLSGVVGVFNCQGAGWCKVGKKNLIHDENPDTITGVIRAKDVSYLWKIAGESWTGDAVIFSHLAGEVVYLPQDASMPITLKSREFDVFTVVPVKELANDIKFAPIGLMKMFNSGGAVKEMNHQPGSSNVSLKVRGSGPFGAYSSSKPKRVAVDSEEVEFIYDEGGLITIDLKVPEKELYLWDIRIEL
notes: coding region in pAcHLT, baculovirus/Sf9 insect cells; 6xHis tag removed by thrombin
B2: CsAGA3 (Cucumis sativus) (protein)
chain: MTIKPAVRISDGKLIVKDRTILTGVPDNVIATSGSSSGPVEGVFLGAVFEEEQSRQVVSLGTLRDVRFMACFRFKLWWMAQKMGDKGKEIPLETQFLLLETKDGSHLESDDGNEENQIIYTVFLPLIEGSFRACLQGNGQDELELCLESGDVDTKASSFTHSLFIHAGTDPFDAISDAMKAVKLHLNTFRLRHEKKFPAIVDYFGWCTWDAFYHEVTQDGVEAGLESLTAGGVPPKFVIIDDGWQSVGGDPQEEKEEGDEKQPKQPPLLRLTAIRENSKFQKKEDPTEGIKNIVNIAKNKYGLKYVYVWHAITGYWGGVRTGVKDMEEYGSSMQYPKVSKGVFENEPIWKNDALALQGLGLMNPKNVYKFYNELHSYLASAGIDGVKVDAQSILETLGAGLGGRVELTRQYHQALDASVARNFPDNGIIACMSHHTDAVYCAKQTAVVRASDDFYPRDPVSHTIHIAAVAYNTVFLGEIMVPDWDMFHSLHSAAEYHASARAISGGPVYVSDAPGKHNFELLRKLVLPDGSVLRATLPGRPTRDCLFSDPARDGVSLLKIWNLNKFTGVIGIYNCQGAAWNSQERKNTFHDTNSDAITGYVKGRDVHAISKVAADPDWNGDCAFYRHLSGDLVTLPYNSALPVSLKVLEFDIFTISPIKVLAPGFSFAPIGLIDMYNSGGAIEGLKYEVKGGAKLVEVDGASEGIETASERVENRSSELVAIVHLEVKGCGRFGAYSSAKPRQCIVDSSVVEFGYDSESGLLTLGIDKLPEGDLKYHDVKIEL
notes: as for B1
B3: CsAGA2 (Cucumis sativus) (protein)
chain: MTVTPKITVNDGNLVVHGKTILTGVPDNIVLTPGSGLGLVAGAFIGATASNSKSLHVFPVGVLEGTRFLCCFRFKLWWMTQRMGTSGRDIPFETQFLLMESQGNDGEDPDNSSTIYTVFLPLLEGQFRAALQGNEKNEMEICLESGDNTVETNQGLSLVYMHAGTNPFEVITQAVKAVEKHTQTFLHREKKKLPSFLDWFGWCTWDAFYTDVTAEGVVEGLQSLSDGGAPPKFLIIDDGWQQIEAKPKDADCVVQEGAQFASRLSGIKENHKFQKNGNNYDQVPGLKVVVDDAKKQHKVKFVYAWHALAGYWGGVKPASPGMEHYDSALAYPVQSPGMLGNQPDIVVDSLAVHGIGLVHPKKVFNFYNELHSYLASCGIDGVKVDVQNIIETLGAGHGGRVTLTRSYHQALEASIARNFSDNGCIACMCHNTDSLYSAKQTAVVRASDDYYPRDPASHTIHISSVAYNSLFLGEFMQPDWDMFHSLHPTAEYHGAARAIGGCAIYVSDKPGNHNFDLLKKLVLPDGSVLRAQLPGRPTRDSLFNDPARDGTSLLKIWNMNKCSGVVGVFNCQGAGWCRITKKTRIHDESPGTLTTSVRAADVDAISQVAGADWKGDTIVYAYRSGDLTRLPKGASVPVTLKVLEYDLFHISPLKDITSNISFAPIGLVDMFNIGGAVEQVDIQVVEPIPEFDGEVASELTCSLPDDRPPTATITMKARGCGRFGLYSSQRPLKCSVDKVGTDFVYDDVTGLVTFEIPIPTEEMYRWNIEIEV
notes: as for B1

These proteins were tested on O=[N+]([O-])c1ccc(O[C@H]2O[C@H](CO)[C@H](O)[C@H](O)[C@H]2O)cc1 (assay: purified protein). Settings: pH and temperature of Km assay not stated.

Q: Which Km does the source give for B1 here?
A: The Km was 1.81 ± 0.39 mM.

Q: How did the Km turn out when B2 was run?
A: The Km was 1.24 ± 0.17 mM.

Q: With B3 as the protein, how does the Km read?
A: The Km was 2.21 ± 0.28 mM.

What follows are proteins tested on OC[C@H]1O[C@H](OC[C@H]2O[C@H](OC[C@H]3O[C@H](O[C@]4(CO)O[C@H](CO)[C@@H](O)[C@@H]4O)[C@H](O)[C@@H](O)[C@@H]3O)[C@H](O)[C@@H](O)[C@H]2O)[C@H](O)[C@@H](O)[C@H]1O (assay: Lineweaver-Burk plot, hydrolysis). Settings: pH and temperature of Km assay not stated.
Assay type: biochemical, Cucumis sativus

Q: For B1, which Km is on record?
A: The Km was 3.76 ± 0.89 mM.

Q: Which Km does the source give for B2 here?
A: Its Km is 3.26 ± 0.76 mM.

Q: B3 was tested. Which Km did it give?
A: The Km was 5.23 ± 1.23 mM.

These proteins were tested on OC[C@H]1O[C@H](OC[C@H]2O[C@H](O[C@]3(CO)O[C@H](CO)[C@@H](O)[C@@H]3O)[C@H](O)[C@@H](O)[C@@H]2O)[C@H](O)[C@@H](O)[C@H]1O (assay: Lineweaver-Burk plot, hydrolysis). Settings: pH and temperature of Km assay not stated.
Assay type: biochemical, Cucumis sativus

Q: Which Km does the source give for B1 here?
A: The Km was 2.08 ± 0.51 mM.

Q: For B2, which Km is on record?
A: The Km was 22.47 ± 1.87 mM.

Q: For B3, which Km is on record?
A: Its Km is 30.4 ± 2.85 mM.

— PMC7802950, “Characteristics and expression patterns of six α-galactosidases in cucumber (Cucumis sativus L.)” (PLoS ONE, 2021)
